Reference: patent US20060270591A1, “Androgen receptor coregulators” (priority 2002, published 2006)
Each block holds one molecule with its values, some of them ahead of it.

What was measured:
PR = target: T1, PR (Homo sapiens, UniProt P06401); test: PR transactivation reporter gene assay (Example 2); format: cell-based
T1 construct: expressed in transfected cells; host or cells: DU145, PC-3
T1 sequence (P06401 1-933): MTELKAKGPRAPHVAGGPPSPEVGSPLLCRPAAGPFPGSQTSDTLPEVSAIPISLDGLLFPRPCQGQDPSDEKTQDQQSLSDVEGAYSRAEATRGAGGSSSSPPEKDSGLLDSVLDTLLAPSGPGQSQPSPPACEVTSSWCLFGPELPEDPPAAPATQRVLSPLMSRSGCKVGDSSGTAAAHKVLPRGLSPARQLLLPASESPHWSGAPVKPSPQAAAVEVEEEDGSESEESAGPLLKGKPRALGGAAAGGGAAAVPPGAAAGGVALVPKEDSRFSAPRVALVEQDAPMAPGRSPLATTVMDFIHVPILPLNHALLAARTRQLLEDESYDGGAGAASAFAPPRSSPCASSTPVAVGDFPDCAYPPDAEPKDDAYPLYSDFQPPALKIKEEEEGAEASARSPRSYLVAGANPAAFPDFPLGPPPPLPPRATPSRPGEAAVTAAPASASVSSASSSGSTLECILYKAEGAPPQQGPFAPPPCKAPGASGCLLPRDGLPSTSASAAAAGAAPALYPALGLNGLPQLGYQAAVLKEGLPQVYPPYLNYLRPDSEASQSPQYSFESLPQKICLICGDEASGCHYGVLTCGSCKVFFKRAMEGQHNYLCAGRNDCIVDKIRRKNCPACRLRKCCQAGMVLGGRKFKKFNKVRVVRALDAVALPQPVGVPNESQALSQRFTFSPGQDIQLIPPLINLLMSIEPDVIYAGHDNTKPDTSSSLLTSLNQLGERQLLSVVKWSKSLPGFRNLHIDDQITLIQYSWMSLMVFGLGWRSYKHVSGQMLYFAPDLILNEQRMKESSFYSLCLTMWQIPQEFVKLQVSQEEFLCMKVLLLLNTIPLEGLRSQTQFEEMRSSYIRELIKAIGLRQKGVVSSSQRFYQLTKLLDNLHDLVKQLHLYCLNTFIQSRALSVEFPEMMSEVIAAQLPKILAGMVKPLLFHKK
Experimental: 12. […] PC-3 (A) or DU145 (B) cells were transfected with MMTV-CAT (2.5 μg), steroid receptor expression plasmid (AR, PR, or GR; 1.0 μg for PC-3 and 0.75 μg for DU145), and pSG5-C′-ARA54 (C′) or pSG5-mt-ARA54 (mt) (8.0 μg for PC-3 and 6.75 μg for DU145), with (for DU145) or without (for PC-3) pSG5-fl-ARA54 (2.25 μg). The total amount of DNA was adjusted to 12.5-13.25 μg with pSG5 for each transfection. […] The CAT activity is presented relative to that of vector alone with cognate ligand in each panel (black bars; set as 100%). Values represent the mean±SD of at least three determinations.
394. The human prostate cancer cell lines, LNCaP, PC-3, and DU145, were maintained in Dulbecco's minimum essential medium (DMEM) containing 5% fetal calf serum (FCS). Transfections using the calcium phosphate precipitation method and chloramphenicol acetyltransferase (CAT) and luciferase (Luc) assays were performed as previously described (Miyamoto et al. (1998) Proc. Natl. Acad. Sci. U.S.A. 95, 7379-7384; Yeh et al. (1999) Endocrine 11, 195-202; Miyamoto et al. (1998) Proc. Natl. Acad. Sci. U.S.A. 95, 11083-11088). Briefly, 1-4×10^5 cells were plated on 35-mm or 60-mm dishes 24 h before adding the precipitation mix containing a CAT or Luc reporter gene and a β-galactosidase expression plasmid (pCMV-β-gal) as an internal control for normalization of transfection efficiency. The medium was changed to phenol-red-free DMEM with 5% charcoal-stripped FCS 1 h before transfection. In each experiment, the total amount of transfected DNA per dish was maintained as a constant by addition of empty expression vector (pSG5 or pVP16, as appropriate). […] The cells were then harvested and whole cell extracts were used for CAT or Luc assay. The CAT activity was quantitated with a PhosphorImager (Molecular Dynamics). The Luc assay was determined using a Dual-Luciferase Reporter Assay System (Promega) and luminometer.

AR = AR transactivation assay, MMTV-CAT reporter, transient transfection (Example 1); format: cell-based, human
Experimental: Human prostate cancer DU145 or PC3 cells, or human lung carcinoma cells NCI H1299 were grown in Dulbecco's minimal essential medium (DMEM) containing penicillin (25 U/ml), streptomycin (25˜g/ml), and 5% fetal calf serum (FCS). One hour before transfection, the medium was changed to DMEM with 5% charcoal-stripped FCS. […] A β-galactosidase expression plasmid, pCMV-β-gal, was used as an internal control for transfection efficiency.
The medium was changed 24 hr posttransfection and the cells treated with either steroid hormones or hydroxyflutamide, and cultured for an additional 24 hr. Cells were harvested and assayed for CAT activity after the cell lysates were normalized by using β-galactosidaseas an internal control. Chloramphenicol acetyltransferase (CA) activity was visualized by PhosphorImager (Molecular Dynamics) and quantitated by ImageQuant software (Molecular Dynamics).

Sequence of AR (P10275 whole entry): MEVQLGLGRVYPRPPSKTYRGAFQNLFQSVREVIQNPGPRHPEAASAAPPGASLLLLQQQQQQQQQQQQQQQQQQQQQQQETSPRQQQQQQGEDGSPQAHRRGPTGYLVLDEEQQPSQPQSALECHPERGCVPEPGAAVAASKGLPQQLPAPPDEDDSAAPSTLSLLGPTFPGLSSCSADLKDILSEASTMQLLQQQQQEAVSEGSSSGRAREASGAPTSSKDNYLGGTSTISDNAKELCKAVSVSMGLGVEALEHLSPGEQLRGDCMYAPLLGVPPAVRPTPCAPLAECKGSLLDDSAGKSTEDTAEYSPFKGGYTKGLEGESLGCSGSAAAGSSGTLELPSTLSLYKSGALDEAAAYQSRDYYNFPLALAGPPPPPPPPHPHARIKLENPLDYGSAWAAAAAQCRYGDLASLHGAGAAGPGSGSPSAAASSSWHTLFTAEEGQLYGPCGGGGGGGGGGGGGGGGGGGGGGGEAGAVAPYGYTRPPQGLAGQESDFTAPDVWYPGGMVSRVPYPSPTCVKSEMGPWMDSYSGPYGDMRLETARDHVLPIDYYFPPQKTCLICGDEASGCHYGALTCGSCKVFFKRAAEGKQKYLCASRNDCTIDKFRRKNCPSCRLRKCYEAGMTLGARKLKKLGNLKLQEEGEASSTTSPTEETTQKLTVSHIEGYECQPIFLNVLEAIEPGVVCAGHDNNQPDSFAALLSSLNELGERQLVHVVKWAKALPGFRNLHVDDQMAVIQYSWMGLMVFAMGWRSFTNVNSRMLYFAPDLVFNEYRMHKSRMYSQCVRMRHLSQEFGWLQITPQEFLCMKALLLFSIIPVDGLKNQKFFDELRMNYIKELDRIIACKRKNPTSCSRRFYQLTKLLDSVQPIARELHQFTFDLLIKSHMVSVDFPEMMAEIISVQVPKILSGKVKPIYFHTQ

- induction of PR transcription (PR; DU145 cells, cotransfected with PR): 2.9 fold
B1: ARA54: 54 kDa protein that interacts with AR in an androgen-dependent manner; AR coactivator (protein)
chain: MSSEDREAQEDELLALASIYDGDEFRKAESVQGGETRIYLDLPQNFKIFVSGNSNECLQNSGFEYTICFLPPLVLNFELPPDYPSSSPPSFTLSGKWLSPTQLSALCKHLDNLWEEHRGSVVLFAWMQFLKEETLAYLNIVSPFELKIGSQKKVQRRTAQASPNTELDFGGAAGSDVDQEEIVDERAVQDVESLSNLIQEILDFDQAQQIKCFNSKLFLCSICFCEKLGSECMYFLECRHVYCKACLKDYFEIQIRDGQVQCLNCPEPKCPSVATPGQVKELVEAELFARYDRLLLQSSLDLMADVVYCPRPCCQLPVMQEPGCTMGICSSCNFAFCTLCRLTYHGVSPCKVTAEKLMDLRNEYLQADEANKRLLDQRYGKRVIQKALEEMESKEWLEKNSKSCPCCGTPIEKLDGCNKMTCTGCMQYFCWICMGSLSRANPYKHFNDPGSPCFNRLFYAVDVDDDIWEDEVED
- enhancement of the transcription activity of AR (AR; DU145 cells): up to 6 fold
- enhancement of wtAR transactivation by coexpression (AR; wtAR, DHT 10^−10 to 10^−8 M): 3-5 fold

- effect on fl-ARA54-induced PR transcription (PR; DU145 cells): little effect
- effect on PR-mediated transactivation (PR; PC-3 cell line, presence of P): only a marginal effect
B2: C′-ARA54: C-terminal region (amino acids 361-474) of ARA54 (protein)
chain: RNEYLQADEANKRLLDQRYGKRVIQKALEEMESKEWLEKNSKSCPCCGTPIEKLDGCNKMTCTGCMQYFCWICMGSLSRANPYKHFNDPGSPCFNRLFYAVDVDDDIWEDEVED
modifications: Homo sapien
notes: C-terminal region (amino acids 361-474) of ARA54
- inhibition of AR-mediated transcription (AR; H1299 cells, endogenous ARA54): up to 70%
